In article PMC11658694, “Acetylation of the yeast Hsp40 chaperone protein Ydj1 fine-tunes proteostasis and translational fidelity” (PLOS Genetics, 2024):
Where a chain is given by its changes, count along the chain named.

Assays:
Ssa1 (purified) [1] = target: T1, Ssa1 (purified) (S. cerevisiae (budding yeast), UniProt P10591 1-642); experiment: cell-based or functional assay
Ssa1 (purified) [2] = target: T1, Ssa1 (purified); experiment: BLI; biotinylated Ydj1 wild-type or mutant (5 μg/ml, equivalent loading) on streptavidin biosensors, Ssa1 (1 μM) in solution; Octet R4, 23°C; 25 mM Hepes pH 7.5, 50 mM KCl, 2 mM DTT, 5 mM MgCl2, 0.5 mM ATP, 0.02% Tween-20; non-specific binding subtracted; conditions: both partners purified

T1 sequence (P10591 whole entry): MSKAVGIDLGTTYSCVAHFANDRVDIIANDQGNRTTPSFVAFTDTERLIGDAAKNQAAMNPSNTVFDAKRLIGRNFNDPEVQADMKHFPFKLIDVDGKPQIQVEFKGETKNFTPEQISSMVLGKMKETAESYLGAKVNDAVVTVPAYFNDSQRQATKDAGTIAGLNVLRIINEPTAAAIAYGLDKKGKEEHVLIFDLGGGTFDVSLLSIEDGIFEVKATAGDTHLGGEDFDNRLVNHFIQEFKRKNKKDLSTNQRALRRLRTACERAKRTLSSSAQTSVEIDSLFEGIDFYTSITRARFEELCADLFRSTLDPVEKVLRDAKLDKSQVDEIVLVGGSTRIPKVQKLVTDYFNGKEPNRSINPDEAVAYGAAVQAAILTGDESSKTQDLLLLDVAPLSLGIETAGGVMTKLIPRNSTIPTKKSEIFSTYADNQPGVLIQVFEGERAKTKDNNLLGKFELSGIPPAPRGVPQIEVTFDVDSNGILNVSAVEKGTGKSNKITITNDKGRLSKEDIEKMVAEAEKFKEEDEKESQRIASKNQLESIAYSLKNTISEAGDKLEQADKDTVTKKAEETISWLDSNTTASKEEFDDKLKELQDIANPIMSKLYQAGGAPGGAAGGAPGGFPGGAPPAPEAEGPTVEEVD

B1: His-tagged Ydj1 6KR (natural protein, S. cerevisiae (budding yeast), UniProt P25491 1-409, looked up)
chain: MVKETKFYDILGVPVTATDVEIRRAYRKCALRYHPDRNPSEEAAERFREASAAYEILSDPEKRDIYDQFGEDGLSGAGGAGGFPGGGFGFGDDIFSQFFGAGGAQRPRGPQRGKDIKHEISASLEELYKGRTAKLALNKQILCKECEGRGGKKGAVKKCTSCNGQGIKFVTRQMGPMIQRFQTECDVCHGTGDIIDPKDRCKSCNGKKVENERKILEVHVEPGMKDGQRIVFKGEADQAPDVIPGDVVFIVSERPHKSFKRDGDDLVYEAEIDLLTAIAGGEFALEHVSGDWLKVGIVPGEVIAPGMRKVIEGKGMPIPKYGGYGNLIIKFTIKFPENHFTSEENLKKLEEILPPRIVPAIPKKATVDECVLADFDPAKYNRTRASRGGANYDSDEEEQGGEGVQCASQ
modifications: biotin (labelled with a 1.5-fold excess of NHS-PEG4-Biotin, for BLI)
- reactivation of chemically denatured luciferase (3 μM Ssa1, 0.3 μM Ydj1), against wild-type (Ssa1 (purified) [1]): ~2 fold

B2: His-tagged Ydj1 K37R (natural protein, S. cerevisiae (budding yeast), UniProt P25491 1-409, looked up)
chain: B1 chain with R23K, R24K, R32K, R46K, R48K
modifications: biotin (labelled with a 1.5-fold excess of NHS-PEG4-Biotin, for BLI)
- reactivation of chemically denatured luciferase (3 μM Ssa1, 0.3 μM Ydj1), against wild-type (Ssa1 (purified) [1]): ~2 fold

B3: His-tagged Ydj1 wild-type (natural protein, S. cerevisiae (budding yeast), UniProt P25491 1-409, looked up)
chain: B1 chain with R23K, R24K, R32K, R37K, R46K, R48K
modifications: biotin (labelled with a 1.5-fold excess of NHS-PEG4-Biotin, for BLI)
notes: Ydj1, yeast Hsp40; YDJ1 gene amplified from yeast genomic DNA, in pRSETA; Methods: 6xHIS-TEV-Ydj1 fusion; A TEV site lies between tag and Ydj1; A fragment lacking the J-domain co-purifies; also called HIS-Ydj1; Ydj1-biotin; source: E. coli Rosetta (DE3), purified (Ni-sepharose, Superdex 200); not shown: His6, N-terminal, kept
- binding result (Ssa1 (purified) [2]): binds

B4: His-tagged Ydj1 K23Q (natural protein, S. cerevisiae (budding yeast), UniProt P25491 1-409, looked up)
chain: B1 chain with R23Q, R24K, R32K, R37K, R46K, R48K
modifications: biotin (labelled with a 1.5-fold excess of NHS-PEG4-Biotin, for BLI)
notes: Ydj1, yeast Hsp40; Tag end: see m28; source: E. coli Rosetta (DE3), purified (Ni-sepharose, Superdex 200); not shown: His6, N-terminal, kept
- binding result (Ssa1 (purified) [2]): binds

B5: His-tagged Ydj1 K23R (natural protein, S. cerevisiae (budding yeast), UniProt P25491 1-409, looked up)
chain: B1 chain with R24K, R32K, R37K, R46K, R48K
modifications: biotin (labelled with a 1.5-fold excess of NHS-PEG4-Biotin, for BLI)
notes: as for B4
- binding result (Ssa1 (purified) [2]): binds
